Measured values reported in patent US5783663A, “Peptide ligands for affinity purification of fibrinogen” (Bayer Corporation, priority 1998, dated 1998).
No end group written: not given here.

Legend:
[1] = target: T1, human serum albumin (HSA) (Homo sapiens, UniProt P02768); test: HSA binding to peptide resin columns (affinity chromatography); settings: conditions of the experimental section, FIGS. 3-5
T1 construct: purchased Bayer Corporation (Clayton, N.C.), donated rather than bought
Experimental: (§1) Dried peptide resins were packed into 0.6 ml columns (0.4 cm×5 cm, Thomson, Va.), and evaluated on a Waters HPLC-system (Milford, Mass.) with a UV-detector (Knauer, Germany) monitoring at 280 nm. The columns were conditioned with over 5 volumes of 20% ethanol in water, followed by a minimum of 5 volumes of water.
(§2) Human fibrinogen was purchased from Enzymes Research Labs (South Bend, Ind.), and 25% human serum albumin (HSA) was a donation from the Bayer Corporation (Clayton, N.C.). The following buffers were used for both dissolving fibrinogen and diluting HSA.
This column was equilibrated in Buffer A, and the following program was used for each column run: From time 0-15 minutes, Buffer A was applied. At time 5 minutes, a 50 μl sample dissolved in buffer A was injected onto the column with a 100 μl sample loop. From time 15-20 minutes, bound protein was step-eluted by switching to 0.1M acetic acid, pH 2.9, followed by 0.4M acetic acid, pH 2.6, from time 20-21 minutes. The column was then re-equilibrated with Buffer A from time 21-30 minutes. During the column run, the flow rate was 1 ml/min from time 0-21 minutes; it was increased to 2 ml/min from time 21-30 minutes. […]

Human fibrinogen [2] = target: T2, Human fibrinogen (Homo sapiens, UniProt P02671+P02675+P02679); test: Fibrinogen recovery from peptide columns (acetic acid elution, A280 of eluted peak); assay type: binding
T2 construct: purchased Enzymes Research Labs (South Bend, Ind.)
T2 sequence (P02671 20-629 isoform P02671-2 limits assumed): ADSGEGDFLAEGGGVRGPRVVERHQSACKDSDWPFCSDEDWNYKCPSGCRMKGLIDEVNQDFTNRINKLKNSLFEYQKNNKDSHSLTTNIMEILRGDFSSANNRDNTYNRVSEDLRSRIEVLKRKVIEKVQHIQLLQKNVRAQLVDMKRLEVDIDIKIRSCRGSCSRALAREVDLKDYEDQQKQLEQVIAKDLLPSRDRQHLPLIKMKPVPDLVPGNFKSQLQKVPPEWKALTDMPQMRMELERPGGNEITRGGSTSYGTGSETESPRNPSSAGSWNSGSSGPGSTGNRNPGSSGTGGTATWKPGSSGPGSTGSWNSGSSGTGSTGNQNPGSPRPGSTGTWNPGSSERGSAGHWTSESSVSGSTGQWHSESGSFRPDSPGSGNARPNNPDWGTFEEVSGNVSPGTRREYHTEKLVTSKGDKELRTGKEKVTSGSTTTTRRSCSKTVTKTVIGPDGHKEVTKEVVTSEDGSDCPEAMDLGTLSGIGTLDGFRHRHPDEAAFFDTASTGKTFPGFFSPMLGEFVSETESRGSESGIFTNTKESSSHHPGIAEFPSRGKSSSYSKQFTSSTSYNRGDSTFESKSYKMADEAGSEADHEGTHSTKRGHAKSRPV
T2 sequence (P02675 31-491): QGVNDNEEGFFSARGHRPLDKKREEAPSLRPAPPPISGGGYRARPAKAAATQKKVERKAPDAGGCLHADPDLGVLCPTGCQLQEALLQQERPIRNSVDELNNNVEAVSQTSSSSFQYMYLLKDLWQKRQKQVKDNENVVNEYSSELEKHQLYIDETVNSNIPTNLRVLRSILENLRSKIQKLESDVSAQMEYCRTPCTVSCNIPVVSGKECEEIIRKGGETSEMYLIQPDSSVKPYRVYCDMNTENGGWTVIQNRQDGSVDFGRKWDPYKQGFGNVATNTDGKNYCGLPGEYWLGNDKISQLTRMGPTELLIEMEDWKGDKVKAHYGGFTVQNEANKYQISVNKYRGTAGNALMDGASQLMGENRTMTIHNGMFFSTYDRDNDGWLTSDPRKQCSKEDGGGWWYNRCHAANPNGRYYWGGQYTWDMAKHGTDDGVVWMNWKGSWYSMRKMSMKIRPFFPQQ
T2 sequence (P02679 27-437 isoform P02679-2 limits assumed): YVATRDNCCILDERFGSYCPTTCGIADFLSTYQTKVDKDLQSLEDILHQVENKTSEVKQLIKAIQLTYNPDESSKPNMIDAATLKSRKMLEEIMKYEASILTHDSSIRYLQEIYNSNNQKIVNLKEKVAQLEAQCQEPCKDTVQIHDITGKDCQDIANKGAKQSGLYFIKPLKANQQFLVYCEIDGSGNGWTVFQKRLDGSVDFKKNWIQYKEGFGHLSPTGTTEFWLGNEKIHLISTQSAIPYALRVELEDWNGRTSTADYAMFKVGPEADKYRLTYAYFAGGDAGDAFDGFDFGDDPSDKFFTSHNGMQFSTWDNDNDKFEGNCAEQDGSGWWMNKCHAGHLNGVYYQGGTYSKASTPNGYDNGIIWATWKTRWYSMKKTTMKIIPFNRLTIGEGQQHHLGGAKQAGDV
Experimental: as §1, §2
(§3) This column was equilibrated in Buffer A, and the following program was used for each column run: From time 0-15 minutes, Buffer A was applied. At time 5 minutes, a 50 μl sample dissolved in buffer A was injected onto the column with a 100 μl sample loop. From time 15-20 minutes, bound protein was step-eluted by switching to 0.1M acetic acid, pH 2.9, followed by 0.4M acetic acid, pH 2.6, from time 20-21 minutes. The column was then re-equilibrated with Buffer A from time 21-30 minutes. During the column run, the flow rate was 1 ml/min from time 0-21 minutes; it was increased to 2 ml/min from time 21-30 minutes.
(§4) In total, seven injections were made: #1 Buffer A (blank); #2 100 μg/μl HSA; #3 20 μg/μl Fibrinogen; #4 Mixture of 5 μg/μl Fibrinogen and 90 μg/μl HSA; #5 Mixture of 10 μg/μl Fibrinogen and 75 μg/μl HSA; #6 Mixture of 20 μg/μl Fibrinogen and 50 μg/μl HSA; #7 20 μg/μl Fibrinogen.
(§5) After equilibrating in Buffer B, the following program was used for each column run: From time 0-15 minutes, Buffer B was applied. At time 5 minutes, 50 μL sample dissolved in Buffer B was injected onto the column with a 100 μl sample loop. From time 15-20 minutes, bound protein was step-eluted by switching to 20 mM acetic acid, pH 3.2, followed by 0.4M acetic acid, pH 2.6, from time 20-23 minutes. The column was then re-equilibrated with Buffer B from time 23-30 minutes. During the column run, the flow rate was 1 ml/min from time 0-23 minutes, then it was increased to 2 ml/min from time 23-30 minutes. In total, for each column seven injections were made: #1 Buffer B (blank); #2 for WQEHYN-column: 50 μg/μl HSA, and for YENYGY-column: 100 μg/μl HSA; #3 20 μg/μl Fibrinogen; #4 Mixture of 5 μg/μl Fibrinogen and […] HSA; #5 Mixture of 10 μg/μl Fibrinogen and 50 μg/μl HSA; #6 Mixture of 20 μg/μl Fibrinogen and 50 μg/μl HSA; #7 20 μg/μl Fibrinogen.
In parts (b) and (c), eluted protein was collected in 1.25 ml fractions, some in which pH was measured. The fractions were not re-adjusted to a neutral pH. The purity of the eluted protein was assessed by SDS-PAGE (Biorad) of non-reduced as well as of reduced samples. Broad Range Standards (Biorad) were used as molecular weight standards, and dithiothreitol (Sigma) was used as the reducing agent. Eluted protein was centrifuged and supernatant collected for determination of fibrinogen concentration by A280.

Human fibrinogen [3] = target: T2, Human fibrinogen; test: Fibrinogen binding to peptide resin columns (affinity chromatography, UV 280 nm)
Experimental: as §1, §2
Peptide resin columns were equilibrated in Buffer A. The following program was used for each column run: From time 0-15 minutes, Buffer A was applied. At time 10 minutes, a 50 μl sample was injected onto the column with a 50 μl sample loop. From time 15-20 minutes, bound protein was step-eluted by switching to 0.4M acetic acid (Fisher), pH 2.6. The column was then re-equilibrated with Buffer A from time 20-30 minutes. A flow rate of 1 ml/min was used. For each column two injections were made: #1 Buffer A (blank); #2 10 μg/μl Fibrinogen dissolved in Buffer A.
as §3, §4, §5

[4] = Column run #3, injected 1000 μg fibrinogen (20 μg/μl fibrinogen alone)
[5] = Column run #4, injected 250 μg fibrinogen (5 μg/μl, mixture with HSA)
[6] = Column run #5, injected 500 μg fibrinogen (10 μg/μl, mixture with HSA)
[7] = Column run #6, injected 1000 μg fibrinogen (20 μg/μl, mixture with 50 μg/μl HSA)
[8] = Column run #7, injected 1000 μg fibrinogen (20 μg/μl fibrinogen alone)
[9] = conditions of the experimental section, FIGS. 3-5

HSA binding to peptide column [1] | Fibrinogen recovery, column peak (Human fibrinogen [2]; [4]) [µg] | Fibrinogen recovery, column peak (Human fibrinogen [2]; [5]) [µg] | Fibrinogen recovery, column peak (Human fibrinogen [2]; [6]) [µg] | Fibrinogen recovery, column peak (Human fibrinogen [2]; [7]) [µg] | Fibrinogen recovery, column peak (Human fibrinogen [2]; [8]) [µg] | fibrinogen binding to peptide column (Human fibrinogen [3]; [9]) | fibrinogen binding to peptide column (Human fibrinogen [3]; Buffer A (preliminary test / later tests)) | fibrinogen binding to peptide column (Human fibrinogen [3]; Buffer B) | Substance
none of these peptides bound HSA | 330 | 70 | 140 | 220 | 240 | bound fibrinogen | – | – | Trp-Gln-Glu-His-Tyr-Asn (WQEHYN; not fully specified (C-terminus); printed as Trp-Gln-Glu-His-Tyr-Asn) [hexapeptide ligand synthesized onto TOTDA-modified Toyopearl resin]
none of these peptides bound HSA | 360 | 100 | 150 | 310 | 340 | bound fibrinogen | – | – | Trp-Gln-Glu-Thr-Tyr-Gln (WQETYQ; not fully specified (C-terminus); printed as Trp-Gln-Glu-Thr-Tyr-Gln) [hexapeptide ligand synthesized onto TOTDA-modified Toyopearl resin]
– | 530 | 150 | 280 | 520 | 530 | bound fibrinogen | – | – | Tyr-Glu-Asn-Tyr-Gly-Tyr (YENYGY; not fully specified (C-terminus); printed as Tyr-Glu-Asn-Tyr-Gly-Tyr) [hexapeptide ligand synthesized onto TOTDA-modified Toyopearl resin]
– | – | – | – | – | – | – | did not bind fibrinogen | did not bind fibrinogen | W-E-Q-(S)-N-P (WEQSNP)
